B1: 041216-G06 (protein)
chain: MALPVTALLLPLALLLHAARPDEIVLTQSPGSLAVSPGERVTMSCKSSQSVFFSSSQKNYLAWYQQIPGQSPRLLIYWASTRESGVPDRFTGSGSGTDFTLTISSVQPEDLAIYYCHQYLSSRTFGQGTKLEIKRLEGKPIPNPLLGLDSTGSGEDLKNVFPPEVAVFEPSKAEIAHTQKATLVCLATGFYPDHVELSWWVNGKEVHSGVCTDPQPLKEQPALNDSRYCLSSRLRVSATFWQNPRNHFRCQVQFYGLSENDEWTQDRAKPVTQIVSAEAWGRADCGITSASYHQGVLSATILYEILLGKATLYAVLVSALVLMAMVKRKDSRGRAKRSGSGATNFSLLKQAGDVEENPGPTSMDWIWRILFLVGAATGAHSFEQVQLQQPGAEVVKPGASVKMSCKASGYTFTSYYIHWIKQTPGQGLEWVGVIYPGNDDISYNQKFQGKATLTADKSSTTAYMQLSSLTSEDSAVYYCAREVRLRYFDVWGQGTTVTVSSTREQKLISEEDGSGTPFPSLAPPIMLLVDGKQQMVVVCLVLDVAPPGLDSPIWFSAGNGSALDAFTYGPSPATDGTWTNLAHLSLPSEELASWEPLVCHTGPGAEGHSRSTQPMHLSGEASTARTCPQEPLRGTPGGALWLGVLRLLLFKLLLFDLLLTCSCLCDPAGPLPSPATTTRLRALGSHRLHPATETGGREATSSPRPQPRDRRWGDTPPGRKPGSPVRAKRSGSGVKQTLNFDLLKLAGDVESNPGPSRGHMTEYKPTVRLATRDDVPRAVRTLAAAFADYPATRHTVDPDRHIERVTELQELFLTRVGLDIGKVWVADDGAAVAVWTTPESVEAGAVFAEIGPRMAELSGSRLAAQQQMEGLLAPHRPKEPAWFLATVGVSPDHQGKGLGSAVVLPGVEAAERAGVPAFLETSAPRNLPFYERLGFTVTADVEVPEGPRTWCMTRKPGA
modifications: Polynucleotide encoding a Synthetic Immune Receptor (SIR)
B2: 062717-P06 (protein)
chain: MALPVTALLLPLALLLHAARPLEGKPIPNPLLGLDSTGSGEDLKNVFPPEVAVFEPSKAEIAHTQKATLVCLATGFYPDHVELSWWVNGKEVHSGVCTDPQPLKEQPALNDSRYCLSSRLRVSATFWQNPRNHFRCQVQFYGLSENDEWTQDRAKPVTQIVSAEAWGRADCGITSASYHQGVLSATILYEILLGKATLYAVLVSALVLMAMVKRKDSRGRAKRSGSGATNFSLLKQAGDVEENPGPTSMALPVTALLLPLALLLHAARPEVQLQQSGPGLVKPSQTLSLTCAISGDSVSSNSAAWNWIRQSPSRGLEWLGRTYYRSKWYSDYAVSVKSRITINPDTSKNQFSLQLNSVTPEDTAVYYCARDPYDFWSGYPDAFDIWGQGTMVTVSSGGGGSGGGGSGGGGSQSALTQPASVSGSPGQSITISCTGTSSDVGGYNYVSWYQQHPGKAPKVIISEVNNRPSGVSHRFSGSKSGNTASLTISGLQAEDEADYFCSSYTSGRTLYVFGTGSKVTVLGTREQKLISEEDGSGIQNPDPAVYQLRDSKSSDKSVCLFTDFDSQTNVSQSKDSDVYITDKCVLDMRSMDFKSNSAVAWSNKSDFACANAFNNSIIPEDTFFPSSDVPCDVKLVEKSFETDTNLNFQNLSVIGFRILLLKVAGFNLLMTLRLWSSRAKRSGSGVKQTLNFDLLKLAGDVESNPGPSRGHMTEYKPTVRLATRDDVPRAVRTLAAAFADYPATRHTVDPDRHIERVTELQELFLTRVGLDIGKVWVADDGAAVAVWTTPESVEAGAVFAEIGPRMAELSGSRLAAQQQMEGLLAPHRPKEPAWFLATVGVSPDHQGKGLGSAVVLPGVEAAERAGVPAFLETSAPRNLPFYERLGFTVTADVEVPEGPRTWCMTRKPGA
B3: 062717-Q04 (protein)
chain: MALPVTALLLPLALLLHAARPLEGKPIPNPLLGLDSTGSGEDLKNVFPPEVAVFEPSKAEIAHTQKATLVCLATGFYPDHVELSWWVNGKEVHSGVCTDPQPLKEQPALNDSRYCLSSRLRVSATFWQNPRNHFRCQVQFYGLSENDEWTQDRAKPVTQIVSAEAWGRADCGITSASYHQGVLSATILYEILLGKATLYAVLVSALVLMAMVKRKDSRGRAKRSGSGATNFSLLKQAGDVEENPGPTSMALPVTALLLPLALLLHAARPQSALTQPASASGSPGQSVTISCTGTSSDVGGYNYVSWYQQHPGKAPKLMIYDVSNRPSGVSNRFSGSKSGNTASLTISGLQAEDEADYYCSSYTSSSTLYVFGTGTQLTVLGGGGSGGGGSGGGGSEVQLQQSGPGLVKPSQTLSLTCAISGDSMLSNSDTWNWIRQSPSRGLEWLGRTYHRSTWYDDYASSVRGRVSINVDTSKNQYSLQLNAVTPEDTGVYYCARVRLQDGNSWSDAFDVWGQGTMVTVSSTREQKLISEEDGSGIQNPDPAVYQLRDSKSSDKSVCLFTDFDSQTNVSQSKDSDVYITDKCVLDMRSMDFKSNSAVAWSNKSDFACANAFNNSIIPEDTFFPSSDVPCDVKLVEKSFETDTNLNFQNLSVIGFRILLLKVAGFNLLMTLRLWSSRAKRSGSGVKQTLNFDLLKLAGDVESNPGPSRGHMTEYKPTVRLATRDDVPRAVRTLAAAFADYPATRHTVDPDRHIERVTELQELFLTRVGLDIGKVWVADDGAAVAVWTTPESVEAGAVFAEIGPRMAELSGSRLAAQQQMEGLLAPHRPKEPAWFLATVGVSPDHQGKGLGSAVVLPGVEAAERAGVPAFLETSAPRNLPFYERLGFTVTADVEVPEGPRTWCMTRKPGA
B4: 083116-D03 (protein)
chain: MALPVTALLLPLALLLHAARPLEGKPIPNPLLGLDSTGSGEDLKNVFPPEVAVFEPSKAEIAHTQKATLVCLATGFYPDHVELSWWVNGKEVHSGVCTDPQPLKEQPALNDSRYCLSSRLRVSATFWQNPRNHFRCQVQFYGLSENDEWTQDRAKPVTQIVSAEAWGRADCGITSASYHQGVLSATILYEILLGKATLYAVLVSALVLMAMVKRKDSRGRAKRSGSGATNFSLLKQAGDVEENPGPTSMALPVTALLLPLALLLHAARPDIQMTQSPATIENTSLSASVGDRVTITCRASQGISSWLTWYQQKPEKAPKSLIYAASSLQSGVPSRFSGSGSGTDFTLTISSLQPEDFATYYCQQYDSYPITFGQGTRLEIKGGGGSGGGGSGGGGSQVQLQQWGAGLLKPSETLSLTCAVYGGSFSAYYWSWIRQPPGKGLEWIGDINHGGGTNYNPSLKSRVTISVDTSKNQFSLKLNSVTAADTAVYYCASLTAYWGQGSLVTVSSTREQKLISEEDLGSGTPFPSLAPPIMLLVDGKQQMVVVCLVLDVAPPGLDSPIWFSAGNGSALDAFTYGPSPATDGTWTNLAHLSLPSEELASWEPLVCHTGPGAEGHSRSTQPMHLSGEASTARTCPQEPLRGTPGGALWLGVLRLLLFKLLLFDLLLTCSCLCDPAGPLPSPATTTRLRALGSHRLHPATETGGREATSSPRPQPRDRRWGDTPPGRKPGSPVRAKRSGSGVKQTLNFDLLKLAGDVESNPGPSRSRGHMTEYKPTVRLATRDDVPRAVRTLAAAFADYPATRHTVDPDRHIERVTELQELFLTRVGLDIGKVWVADDGAAVAVWTTPESVEAGAVFAEIGPRMAELSGSRLAAQQQMEGLLAPHRPKEPAWFLATVGVSPDHQGKGLGSAVVLPGVEAAERAGVPAFLETSAPRNLPFYERLGFTVTADVEVPEGPRTWCMTRKPGA
modifications: Polynucleotide encoding a Synthetic Immune Receptor (SIR)

Test system: target antigen-expressing cell line
Assay: Jurkat NFAT-GFP assay, coculture with target cell lines expressing the respective target antigen (summary Table 10A)
Format: cell-based, human
Design: key: The signs +/−, +, 2+ etc. after the name of the cell lines indicate the relative degree of positivity on the Jurkat-NFAT-GFP assay as measured by the % GFP positive cells; +: relative degree of positivity on the Jurkat-NFAT-GFP assay as measured by the % GFP positive cells; 2+: relative degree of positivity on the Jurkat-NFAT-GFP assay as measured by the % GFP positive cells
Settings: relative % GFP positive cells; for NFAT-GFP ASSAY Positive Cell lines: RAJI: SIR-expressing Jurkat-NFAT-GFP cells cocultured with RAJI
In short: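 Stable SIR expression in Jurkat-NFAT-GFP cells by lentiviral transfer and puromycin selection; coculture with target cells (E:T approximately 1:2) for 4 to 18 hours; flow cytometric measurement of NFAT-driven GFP; scoring as positive when % GFP-positive cells exceeds that of parental reporter cells.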

| Molecule | NFAT-GFP ASSAY Positive Cell lines: HL60 (SIR-expressing Jurkat-NFAT-GFP cells cocultured with HL60) | NFAT-GFP ASSAY Positive Cell lines: KG1 (SIR-expressing Jurkat-NFAT-GFP cells cocultured with KG1) | NFAT-GFP ASSAY Positive Cell lines: RAJI | NFAT-GFP ASSAY Positive Cell lines: THP1 (SIR-expressing Jurkat-NFAT-GFP cells cocultured with THP1) | NFAT-GFP ASSAY Positive Cell lines: L428 (SIR-expressing Jurkat-NFAT-GFP cells cocultured with L428) |
| --- | --- | --- | --- | --- | --- |
| B1 | + | KG1 (+/−) | RAJI (+/−), HL60 | +/− | – |
| B2 | – | – | RAJI (+/−) | – | – |
| B3 | – | – | RAJI (+) | – | – |
| B4 | – | – | – | – | L428 (+/−) |

— US12269859B2, “Synthetic immune receptors and methods of use thereof” (Angeles Therapeutics, Inc., priority 2016, dated 2025)
